These results are taken from article doi:10.1101/2023.01.09.523197.

For the assay, the target named is M. tuberculosis RNA polymerase holoenzyme (M. tuberculosis) (UniProt P9WGZ1). As to the kind of experiment: single-molecule fluorescence.

For the substance “M. tuberculosis GlnR C60SL147C labelled with Alexa Fluor 647 (from UniProt O53830 1-255) (natural protein)”, the stoichiometry N (in general, the number of molecules, sites or subunits per partner or assembly) came out at 4.
